Starred links: 1 amine or outer side, 2 acyl side, 3 side chain; linkers in the order of their positions; H or OH if unused. Positions of bridges follow the written chain, without caps; N, C: chain ends. Non-standard residues stand in square brackets, D forms with d. Primed or numbered codes have the meaning given here. *: point of attachment. (4CF3PhAc)GAbu = (S)-2-amino-4-(N-(carboxymethyl)-2-(4-(trifluoromethyl)phenyl)acetamido)butanoic acid, O=C(Cc1ccc(C(F)(F)F)cc1)N(CC[C@H](N[*:1])C(=O)[*:2])CC(=O)[*:3]; (MeMorphBz)GAbu = (S)-2-amino-4-(N-(carboxymethyl)-4-(morpholinomethyl)benzamido)butanoic acid, O=C(c1ccc(CN2CCOCC2)cc1)N(CC[C@H](N[*:1])C(=O)[*:2])CC(=O)[*:3]; (4AcMePip)GAbu = (S)-2-amino-4-(N-(carboxymethyl)-1-methylpiperidine-4-carboxamido)butanoic acid, CN1CCC(C(=O)N(CC[C@H](N[*:1])C(=O)[*:2])CC(=O)[*:3])CC1; PyrS2″ = (S)-3-amino-1-((pent-4-en-1-yloxy)carbonyl)pyrrolidine-3-carboxylic acid (stapling residue), C=CCCCOC(=O)N1CC[C@@](N[*:1])(C(=O)[*:2])C1; (MorphAc)GAbu = (S)-2-amino-4-(N-(carboxymethyl)-2-morpholinoacetamido)butanoic acid, O=C(CN1CCOCC1)N(CC[C@H](N[*:1])C(=O)[*:2])CC(=O)[*:3]; TfeGA = (S)-2-amino-3-((carboxymethyl)(2,2,2-trifluoroethyl)amino)propanoic acid, O=C([C@H](CN(CC(=O)[*:3])CC(F)(F)F)N[*:1])[*:2]; PyrS2 = (S)-3-amino-1-((pent-4-en-1-yloxy)carbonyl)pyrrolidine-3-carboxylic acid, C=CCCCOC(=O)N1CC[C@@](N[*:1])(C(=O)[*:2])C1; (Pic)GAbu = (S)-2-amino-4-(N-(carboxymethyl)picolinamido)butanoic acid, O=C(c1ccccn1)N(CC[C@H](N[*:1])C(=O)[*:2])CC(=O)[*:3]; B5(22) = 2-amino-2-(pent-4-en-1-yl)hept-6-enoic acid (two alkene side chains), C=CCCCC(CCCC=C)(N[*:1])C(=O)[*:2]; HypEs5 = (2R,4S)-4-(pent-4-enoyloxy)pyrrolidine-2-carboxylic acid, C=CCCC(=O)O[C@H]1C[C@H](C(=O)[*:2])N([*:1])C1; GAbu = (S)-2-amino-4-((carboxymethyl)amino)butanoic acid, O=C([C@H](CCNCC(=O)[*:3])N[*:1])[*:2]; B5(3) = 2,2-bis(4-pentenyl)glycine (stitching residue), C=CCCCC(CCCC=C)(N[*:1])C(=O)[*:2]; B5 = 2-amino-2-(pent-4-en-1-yl)hept-6-enoic acid, C=CCCCC(CCCC=C)(N[*:1])C(=O)[*:2]; Phenylacetyl(2,3,4,5,6-F5) = O=C(Cc1c(F)c(F)c(F)c(F)c1F)*; Benzoyl(2,3,4,5,6-F5) = O=C(c1c(F)c(F)c(F)c(F)c1F)*; Acetyl(4-Me-piperazin-1-yl) = CN1CCN(CC(=O)*)CC1; Phe(3-COOH) = N[C@@H](Cc1cccc(C(=O)O)c1)C(=O)O; Ala(4-thiazolyl) = N[C@@H](Cc1cscn1)C(=O)O; Phe(2-Cl) = N[C@@H](Cc1ccccc1Cl)C(=O)O; Phe(3-F) = N[C@@H](Cc1cccc(F)c1)C(=O)O; Phe(4-F) = N[C@@H](Cc1ccc(F)cc1)C(=O)O; 1Nal = N[C@@H](Cc1cccc2ccccc12)C(=O)O; Phe(2-F) = N[C@@H](Cc1ccccc1F)C(=O)O; Bta = N[C@@H](Cc1csc2ccccc12)C(=O)O; αAllylPro = C=CC[C@@]1(C(=O)O)CCCN1; tBuAla = CC(C)(C)C[C@H](N)C(=O)O; 3Thi = N[C@@H](Cc1ccsc1)C(=O)O; Cha = N[C@@H](CC1CCCCC1)C(=O)O; Cit = NC(=O)NCCC[C@H](N)C(=O)O; S8 = C=CCCCCCC[C@](C)(N)C(=O)O; hSer = N[C@@H](CCO)C(=O)O
T1: B-cat-Halo (UniProt P35222 1-781)
T1 sequence (looked up): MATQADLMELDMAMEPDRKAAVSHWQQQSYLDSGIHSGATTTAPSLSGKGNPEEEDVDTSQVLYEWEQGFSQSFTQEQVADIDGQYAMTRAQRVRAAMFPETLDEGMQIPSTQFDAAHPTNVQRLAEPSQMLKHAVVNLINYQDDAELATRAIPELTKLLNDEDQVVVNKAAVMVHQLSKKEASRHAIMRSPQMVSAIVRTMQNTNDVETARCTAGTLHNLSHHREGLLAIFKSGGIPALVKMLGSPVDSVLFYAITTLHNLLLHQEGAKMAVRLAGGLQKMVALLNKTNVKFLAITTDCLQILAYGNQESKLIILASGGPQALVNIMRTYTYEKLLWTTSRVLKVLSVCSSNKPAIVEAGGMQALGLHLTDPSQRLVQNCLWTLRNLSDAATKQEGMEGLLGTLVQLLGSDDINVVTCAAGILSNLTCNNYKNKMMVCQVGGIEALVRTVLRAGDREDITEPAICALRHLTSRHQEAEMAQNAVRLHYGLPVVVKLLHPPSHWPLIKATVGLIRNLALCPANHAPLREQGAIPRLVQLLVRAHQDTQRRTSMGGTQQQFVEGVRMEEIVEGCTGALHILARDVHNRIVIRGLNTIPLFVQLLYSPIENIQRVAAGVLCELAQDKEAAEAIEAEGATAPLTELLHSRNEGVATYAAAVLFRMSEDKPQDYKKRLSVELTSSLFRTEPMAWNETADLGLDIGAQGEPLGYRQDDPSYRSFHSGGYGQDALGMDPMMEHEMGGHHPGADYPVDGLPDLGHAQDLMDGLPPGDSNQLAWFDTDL

T2: B-cat-Halo (beta-catenin HaloTag fusion construct expressed in HEK293 cells) (UniProt P35222 1-781)
T2 sequence (looked up): T1 sequence (looked up)

T3: B-cat-Halo (beta-catenin HaloTag construct expressed in HEK293 cells) (UniProt P35222 1-781)
T3 sequence (looked up): T1 sequence (looked up)


Target: T1, B-cat-Halo
Experiment: cell-based or functional assay

First: Ac-[αAllylPro]D[tBuAla][B5(22)]D[(4AcMePip)GAbu]AAFL[PyrS2][3Thi][Bta]Q-NH2 (staple 1-4, 4-11) [I-2245]
Second: Ac-[αAllylPro]D[tBuAla][B5(22)]D[(4CF3PhAc)GAbu]AAFL[PyrS2][3Thi][Bta]Q-NH2 (staple 1-4, 4-11) [I-2246]
The “NanoBRET Abs IC50” value of the first is higher: over 20 µM for the first, 12.9 µM for the second.

Compared with Ac-[αAllylPro]D[tBuAla][B5(22)]D[(Pic)GAbu]AAFL[PyrS2][3Thi][Bta]Q-NH2 (staple 1-4, 4-11) [I-2247], Ac-[αAllylPro]D[tBuAla][B5(22)]D[(MeMorphBz)GAbu]AAFL[PyrS2][3Thi][Bta]Q-NH2 (staple 1-4, 4-11) [I-2248] is 3.6-fold higher in “NanoBRET Abs IC50” value: 5.9 µM for the first, 21.5 µM for the second.

Ac-[αAllylPro]D[tBuAla][B5(22)]D[(MorphAc)GAbu]AAFL[PyrS2][3Thi][Bta]Q-NH2 (staple 1-4, 4-11) [I-2249] and Ac-[αAllylPro]D[tBuAla][B5(22)]D[GAbu](Acetyl(4-Me-piperazin-1-yl))AAFL[PyrS2][3Thi][Bta]Q-NH2 (staple 1-4, 4-11) [I-2250] are within 1.5-fold of each other in “NanoBRET Abs IC50” value: 42.2 µM for the first, 36.2 µM for the second.

First: Ac-[αAllylPro]D[tBuAla][B5(22)]D[GAbu](Phenylacetyl(2,3,4,5,6-F5))AAFL[PyrS2][3Thi][Bta]Q-NH2 (staple 1-4, 4-11) [I-2251]
Second: Ac-[αAllylPro]D[tBuAla][B5(22)]D[GAbu](Benzoyl(2,3,4,5,6-F5))AAFL[PyrS2][3Thi][Bta]Q-NH2 (staple 1-4, 4-11) [I-2252]
The “NanoBRET Abs IC50” value of the first is 2.7-fold lower: 6.4 µM for the first, 17.5 µM for the second.

Ac-[αAllylPro]D[tBuAla][B5(3)]D[Phe(3-COOH)]AAFL[PyrS2″][3Thi][Bta]A-NH2 (staple 1-4, 4-11) [I-2257] and Ac-[αAllylPro]D[tBuAla][B5(3)]D[Phe(3-COOH)]AAFF[PyrS2″][3Thi][Bta]A-NH2 (staple 1-4, 4-11) [I-2259] are within 1.5-fold of each other in “NanoBRET Abs IC50” value: 2.9 µM for the first, 4.3 µM for the second.

Going from Ac-[αAllylPro]D[tBuAla][B5(3)]D[Phe(3-COOH)]AA[Phe(3-F)]L[PyrS2″][3Thi][Bta]A-NH2 (staple 1-4, 4-11) [I-2260] to Ac-[αAllylPro]D[tBuAla][B5(3)]D[Phe(3-COOH)]AAFL[PyrS2″][Phe(3-F)][Bta]A-NH2 (staple 1-4, 4-11) [I-2261], the “NanoBRET Abs IC50” value rises from 3.1 µM to 6.4 µM (2.1-fold).

Ac-[αAllylPro]D[tBuAla][B5(3)]D[Phe(3-COOH)]AA[Phe(4-F)]L[PyrS2″][3Thi][Bta]A-NH2 (staple 1-4, 4-11) [I-2262] and Ac-[αAllylPro]D[tBuAla][B5(3)]D[Phe(3-COOH)]AAFL[PyrS2″][Phe(4-F)][Bta]A-NH2 (staple 1-4, 4-11) [I-2263] are within 1.5-fold of each other in “NanoBRET Abs IC50” value: 3.7 µM for the first, 4.3 µM for the second.

Ac-[HypEs5]D[tBuAla][B5(3)]D[TfeGA]AAFL[PyrS2″][3Thi][Bta]Q-NH2 (staple 1-4, 4-11) [I-2264] and Ac-[HypEs5]D[tBuAla][B5(3)]D[TfeGA]AAFL[PyrS2″][3Thi][Bta]Q-NH2 (staple 1-4, 4-11; also: staple double bonds reduced to -CH2-CH2-) [I-2265] cannot be ordered by “NanoBRET Abs IC50” value: 25.5 µM for the first, over 20 µM for the second.

Target: T2, B-cat-Halo (beta-catenin HaloTag fusion …)
Experiment: cell-based or functional assay

Going from Ac-[αAllylPro]D[tBuAla][B5(3)]DDAAFL[S8][Phe(2-Cl)][Bta]Q-NH2 (staple 1-4, 4-11) [I-1095] to Ac-[αAllylPro]D[tBuAla][B5(3)]DEAAFL[S8][Phe(2-Cl)][Bta]Q-NH2 (staple 1-4, 4-11) [I-1096], the “NanoBRET Abs IC50” value falls from over 20 µM to 8.6 µM.

First: Ac-[αAllylPro]D[tBuAla][B5(3)]DDAAFL[S8][Phe(2-Cl)][Bta][dT]-NH2 (staple 1-4, 4-11) [I-1097]
Second: Ac-[αAllylPro]D[tBuAla][B5(3)]DDAAFS[PyrS2″]F[Bta]S-NH2 (staple 1-4, 4-11) [I-1099]
The “NanoBRET Abs IC50” value of the first is higher: over 20 µM for the first, 9 µM for the second.

Ac-[αAllylPro]D[Cha][B5(3)]DDAAFS[PyrS2″]F[Bta]S-NH2 (staple 1-4, 4-11) [I-1100] and Ac-[αAllylPro]D[tBuAla][B5(3)]DDAAFS[PyrS2″][Phe(2-F)][Bta]S-NH2 (staple 1-4, 4-11) [I-1101] are within 1.5-fold of each other in “NanoBRET Abs IC50” value: 24.3 µM for the first, 27 µM for the second.

Ac-[αAllylPro]D[Cha][B5(3)]DDAAFS[PyrS2″][Phe(2-F)][Bta]S-NH2 (staple 1-4, 4-11) [I-1102] was tested, and the “NanoBRET Abs IC50” value was 27.2 µM.

Target: T3, B-cat-Halo (beta-catenin HaloTag …)
Experiment: cell-based or functional assay

First: Ac-[αAllylPro]D[tBuAla][B5]DDAAFN[PyrS2][1Nal][Bta]H-NH2 (staple 1-4, 4-11) [I-794]
Second: Ac-[αAllylPro]D[tBuAla][B5]DDAAFL[PyrS2][3Thi][Bta]H-NH2 (staple 1-4, 4-11) [I-802]
The “NanoBRET Abs IC50” value of the first is 5.5-fold higher: 26.4 µM for the first, 4.8 µM for the second.

Ac-[αAllylPro]D[tBuAla][B5(3)]DDAAF[hSer][PyrS2″][3Thi][Bta]H-NH2 (staple 1-4, 4-11) [I-804] and Ac-[αAllylPro]D[tBuAla][B5(3)]DDAAF[Cit][PyrS2″][3Thi][Bta]Q-NH2 (staple 1-4, 4-11) [I-805] are within 1.5-fold of each other in “NanoBRET Abs IC50” value: 13.5 µM for the first, 18.5 µM for the second.

Going from Ac-[αAllylPro]D[tBuAla][B5(3)]DDAAF[Cit][PyrS2″][3Thi][Bta]H-NH2 (staple 1-4, 4-11) [I-806] to Ac-[αAllylPro]D[tBuAla][B5(3)]DDAAFF[PyrS2″][3Thi][Bta]Q-NH2 (staple 1-4, 4-11) [I-807], the “NanoBRET Abs IC50” value falls from 21.6 µM to 3.2 µM (6.8-fold).

First: Ac-[αAllylPro]D[tBuAla][B5(3)]DDAAFF[PyrS2″][3Thi][Bta]H-NH2 (staple 1-4, 4-11) [I-808]
Second: Ac-[αAllylPro]D[tBuAla][B5(3)]DDAAFT[PyrS2″][3Thi][Bta]H-NH2 (staple 1-4, 4-11) [I-810]
The “NanoBRET Abs IC50” value of the first is 4.1-fold lower: 4.4 µM for the first, 18 µM for the second.

Ac-[αAllylPro]D[tBuAla][B5(3)]DDAAFN[PyrS2″][Ala(4-thiazolyl)][Bta]Q-NH2 (staple 1-4, 4-11) [I-811] and Ac-[αAllylPro]D[tBuAla][B5(3)]DDAA[Ala(4-thiazolyl)]N[PyrS2″][3Thi][Bta]Q-NH2 (staple 1-4, 4-11) [I-812] cannot be ordered by “NanoBRET Abs IC50” value: over 20 µM for the first, 48.6 µM for the second.

Going from Ac-[αAllylPro]D[tBuAla][B5]DDAAFN[PyrS2″][3Thi][Bta][dH]-NH2 (staple 1-4, 4-11) [I-813] to Ac-[αAllylPro]D[tBuAla][B5]DDAAFN[PyrS2″][3Thi][Bta]N-NH2 (staple 1-4, 4-11) [I-816], the “NanoBRET Abs IC50” value falls from 20.9 µM to 13.7 µM (1.5-fold).
